According to doi:10.1101/127183:
Values belong to the substance of their own block, whether it stands above or below them.

Columns and labels:
[1] = molecular target: COCP with an Ala substitution of Trp-288 (COCP-W288A), carotenoid-bound holoform (Synechocystis); experiment: SEC
[2] = molecular target: Apoprotein of COCP (Apo-COCP) (Synechocystis); experiment: SEC
[3] = molecular target: Synechocystis OCP^WT apoprotein (Apo-OCP) (Synechocystis) (UniProt P74102); experiment: SEC
[4] = molecular target: Synechocystis OCP^WT apoprotein (Apo-OCP) (Synechocystis) (UniProt P74102); experiment: SEC; remark: listed apart in the source
[5] = molecular target: Synechocystis OCP^WT apoprotein (Apo-OCP) (Synechocystis) (UniProt P74102); experiment: SEC-SAXS with right angle light scattering
[6] = molecular target: C-terminal OCP-related Carotenoid-binding Protein (COCP), carotenoid-bound holoform (Synechocystis); experiment: cross-linking
[7] = molecular target: Synechocystis OCP^WT apoprotein (Apo-OCP) (Synechocystis) (UniProt P74102); experiment: cross-linking
[8] = molecular target: C-terminal OCP-related Carotenoid-binding Protein (COCP), carotenoid-bound holoform (Synechocystis); experiment: SEC

Chain of UniProt P74102 (P74102 whole entry): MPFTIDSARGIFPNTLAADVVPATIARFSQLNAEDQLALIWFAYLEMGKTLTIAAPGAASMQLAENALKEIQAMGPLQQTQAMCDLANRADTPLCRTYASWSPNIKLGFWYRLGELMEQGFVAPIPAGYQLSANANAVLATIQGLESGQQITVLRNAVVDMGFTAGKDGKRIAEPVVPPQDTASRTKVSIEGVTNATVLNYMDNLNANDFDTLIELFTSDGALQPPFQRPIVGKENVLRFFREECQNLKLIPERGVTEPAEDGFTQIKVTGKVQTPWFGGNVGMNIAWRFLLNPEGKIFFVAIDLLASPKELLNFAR

Substance: COCP with an Ala substitution of Trp-288 (COCP-W288A), carotenoid-bound holoform (domain or fragment)
- stoichiometry N [1]: 2

Substance: Apoprotein of COCP (Apo-COCP) (domain or fragment)
- stoichiometry N [2]: 2

- stoichiometry N [3]: 2
- stoichiometry N [4]: 2
- stoichiometry N [5]: 2
Substance: Synechocystis OCP^WT apoprotein (Apo-OCP) (from UniProt P74102 1-317) (natural protein)

Substance: C-terminal OCP-related Carotenoid-binding Protein (COCP), carotenoid-bound holoform (domain or fragment)
- stoichiometry N [6]: 2
- stoichiometry N (COCP subunit per Apo-OCP subunit) [7]: 1
- stoichiometry N [8]: 2
